In patent publication US20220023420A1 (PRECIGEN, published 2022):

What follows are binders tested against T1, TGF-β1 (UniProt P01137 279-390) (assay: cell-based or functional assay).
T1 sequence (P01137 279-390 limits assumed): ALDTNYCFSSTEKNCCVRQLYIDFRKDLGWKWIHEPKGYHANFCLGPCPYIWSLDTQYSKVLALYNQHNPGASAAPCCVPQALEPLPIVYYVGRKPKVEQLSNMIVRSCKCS

| Binder | IC50-inhibition of TGF-β1 induced reporter gene activity (HEK-Blue TGF-β cells, SEAP) [pM] |
| --- | --- |
| Anti-PD-1(VH7-VL6) IgG4-TGFβRII (other) heavy: QVQLVQSGVEVKKPGASVKVSCKASGYTFTNYYMYWVRQAPGQGLEWMGGINPSNGGTNFNEKFKNRVTLTTDSSTTTAYMELKSLQFDDTAVYYCARRDYRFDMGFDYWGQGTTVTVSSASTKGPSVFPLAPCSRSTSESTAALGCLVKDYFPEPVTVSWNSGALTSGVHTFPAVLQSSGLYSLSSVVTVPSSSLGTKTYTCNVDHKPSNTKVDKRVESKYGPPCPSCPAPEFLGGPSVFLFPPKPKDTLMISRTPEVTCVVVDVSQEDPEVQFNWYVDGVEVHNAKTKPREEQFNSTYRVVSVLTVLHQDWLNGKEYKCKVSNKGLPSSIEKTISKAKGQPREPQVYTLPPSQEEMTKNQVSLTCLVKGFYPSDIAVEWESNGQPENNYKTTPPVLDSDGSFFLYSRLTVDKSRWQEGNVFSCSVMHEALHNHYTQKSLSLSPGKGGGGSGGGGSIPPHVQKSVNNDMIVTDNNGAVKFPQLCKFCDVRFSTCDNQKSCMSNCSITSICEKPQEVCVAVWRKNDENITLETVCHDPKLPYHDFILEDAASPKCIMKEKKKPGETFFMCSCSSDECNDNIIFSEEYNTSNPD light: EIVLTQSPATLSLSPGERATLSCRASKGVSTSGYSYLHWYQQKPGQAPRLLIYLASYLESGVPARFSGSGSGTDFTLTISSLEPEDFAVYYCQHSRDLPLTFGGGTKVEIKRTVAAPSVFIFPPSDEQLKSGTASVVCLLNNFYPREAKVQWKVDNALQSGNSQESVTEQDSKDSTYSLSSTLTLSKADYEKHKVYACEVTHQGLSSPVTKSFNRGEC | 5.6 |
| Anti-PD-1 (VL5-VH6).IgG4 (antibody, V domains shown) VH: QVQLVESGGGVVQPGRSLRLDCKASGITFSNSGMHWVRQAPGKGLEWVAVIWYDGSKRYYADSVKGRFTISRDNSKNTLFLQMNSLRAEDTAVYYCATNDDYWGQGTLVTVSS VL: EIVLTQSPATLSLSPGERATLSCRASQSVSSYLAWYQQKPGQAPRLLIYDASNRATGIPARFSGSGSGTDFTLTISSLEPEDFAVYYCQQSSNWPRTFGQGTKVEIK | 9 |
| Anti-PD-1 (nVL1-nVH3).IgG4-TGFbRII (other) heavy (part 1 of 2): QVQLVESGGGVVQPGRSLRLDCKASGITFSNSGMHWVRQAPGKGLEWVAVIWYDGSKRYYADSVKGRFTISRDNSKNTLFLQMNSLRAEDTAVYYCATNNDYWGQGTLVTVSS heavy (part 2 of 2): GGGGSGGGGSIPPHVQKSVNNDMIVTDNNGAVKFPQLCKFCDVRFSTCDNQKSCMSNCSITSICEKPQEVCVAVWRKNDENITLETVCHDPKLPYHDFILEDAASPKCIMKEKKKPGETFFMCSCSSDECNDNIIFSEEYNTSNPD VL: EIVMTQSPATLSLSPGERATLSCRASQSVSSYLAWYQQKPGQAPRLLIYDASNRATGIPARFSGSGSGTDFTLTISSLEPEDFAVYYCQQYNNWPRTFGQGTKVEIK | 10.7 |
| Anti-PD-1 (nVL1-nVH8).IgG4-TGFbRII (other) heavy (part 1 of 2): EVQLVQSGGGVVQPGRSLRLSCAASGFTFSSYGMHWVRQAPGKGLEWVAVIWYDGSNKYYADSVKGRFTISRDNSKNTLYLQMNSLRAEDTAVYYCATNNDYWGQGTLVTVSS heavy (part 2 of 2): GGGGSGGGGSIPPHVQKSVNNDMIVTDNNGAVKFPQLCKFCDVRFSTCDNQKSCMSNCSITSICEKPQEVCVAVWRKNDENITLETVCHDPKLPYHDFILEDAASPKCIMKEKKKPGETFFMCSCSSDECNDNIIFSEEYNTSNPD VL: EIVMTQSPATLSLSPGERATLSCRASQSVSSYLAWYQQKPGQAPRLLIYDASNRATGIPARFSGSGSGTDFTLTISSLEPEDFAVYYCQQYNNWPRTFGQGTKVEIK | 54.5 |
| Anti-PD-1 (nVL1-nVH7).IgG4-TGFbRII (other) heavy (part 1 of 2): QVQLVESGGGVVQPGRSLRLDCKASGFTFSNSGMHWVRQAPGKGLEWVAVIWYDGSKRYYADSVKGRFTISRDNSKNTLFLQMNSLRAEDTAVYYCATNNDYWGQGTLVTVSS heavy (part 2 of 2): GGGGSGGGGSIPPHVQKSVNNDMIVTDNNGAVKFPQLCKFCDVRFSTCDNQKSCMSNCSITSICEKPQEVCVAVWRKNDENITLETVCHDPKLPYHDFILEDAASPKCIMKEKKKPGETFFMCSCSSDECNDNIIFSEEYNTSNPD VL: EIVMTQSPATLSLSPGERATLSCRASQSVSSYLAWYQQKPGQAPRLLIYDASNRATGIPARFSGSGSGTDFTLTISSLEPEDFAVYYCQQYNNWPRTFGQGTKVEIK | 15.1 |

Biological target: T1, TGF-β1
Experiment: cell-based or functional assay
Remark: another data set of the same source

| Binder | IC50, TGF-β1 neutralization activity (HEK-Blue TGF-β reporter cells) [pM] |
| --- | --- |
| Anti-PD-1 (VL5-VH6).IgG4-Linker7 -TGFbRII (other) heavy (part 1 of 2): QVQLVESGGGVVQPGRSLRLDCKASGITFSNSGMHWVRQAPGKGLEWVAVIWYDGSKRYYADSVKGRFTISRDNSKNTLFLQMNSLRAEDTAVYYCATNDDYWGQGTLVTVSS heavy (part 2 of 2): DPGSGSVPLGSGSNPGSIPPHVQKSVNNDMIVTDNNGAVKFPQLCKFCDVRFSTCDNQKSCMSNCSITSICEKPQEVCVAVWRKNDENITLETVCHDPKLPYHDFILEDAASPKCIMKEKKKPGETFFMCSCSSDECNDNIIFSEEYNTSNPD VL: EIVLTQSPATLSLSPGERATLSCRASQSVSSYLAWYQQKPGQAPRLLIYDASNRATGIPARFSGSGSGTDFTLTISSLEPEDFAVYYCQQSSNWPRTFGQGTKVEIK | 1.1 |
| Anti-PD-1 (VL5-VH6).IgG4-Linker10 -TGFbRII (other) heavy (part 1 of 2): QVQLVESGGGVVQPGRSLRLDCKASGITFSNSGMHWVRQAPGKGLEWVAVIWYDGSKRYYADSVKGRFTISRDNSKNTLFLQMNSLRAEDTAVYYCATNDDYWGQGTLVTVSS heavy (part 2 of 2): DPGVLEREDVPTTSYPNPGSIPPHVQKSVNNDMIVTDNNGAVKFPQLCKFCDVRFSTCDNQKSCMSNCSITSICEKPQEVCVAVWRKNDENITLETVCHDPKLPYHDFILEDAASPKCIMKEKKKPGETFFMCSCSSDECNDNIIFSEEYNTSNPD VL: EIVLTQSPATLSLSPGERATLSCRASQSVSSYLAWYQQKPGQAPRLLIYDASNRATGIPARFSGSGSGTDFTLTISSLEPEDFAVYYCQQSSNWPRTFGQGTKVEIK | 1.9 |
| Anti-PD-1 (VL5-VH6).IgG4-Linker8 -TGFbRII (other) heavy (part 1 of 2): QVQLVESGGGVVQPGRSLRLDCKASGITFSNSGMHWVRQAPGKGLEWVAVIWYDGSKRYYADSVKGRFTISRDNSKNTLFLQMNSLRAEDTAVYYCATNDDYWGQGTLVTVSS heavy (part 2 of 2): DPGSGGSVPLGSGGSNPGSIPPHVQKSVNNDMIVTDNNGAVKFPQLCKFCDVRFSTCDNQKSCMSNCSITSICEKPQEVCVAVWRKNDENITLETVCHDPKLPYHDFILEDAASPKCIMKEKKKPGETFFMCSCSSDECNDNIIFSEEYNTSNPD VL: EIVLTQSPATLSLSPGERATLSCRASQSVSSYLAWYQQKPGQAPRLLIYDASNRATGIPARFSGSGSGTDFTLTISSLEPEDFAVYYCQQSSNWPRTFGQGTKVEIK | 1.2 |
| Anti-PD-1 (VL5-VH6).IgG4-Linker12 -TGFbRII (other) heavy (part 1 of 2): QVQLVESGGGVVQPGRSLRLDCKASGITFSNSGMHWVRQAPGKGLEWVAVIWYDGSKRYYADSVKGRFTISRDNSKNTLFLQMNSLRAEDTAVYYCATNDDYWGQGTLVTVSS heavy (part 2 of 2): DPVLEREDKVTTSKNPGSIPPHVQKSVNNDMIVTDNNGAVKFPQLCKFCDVRFSTCDNQKSCMSNCSITSICEKPQEVCVAVWRKNDENITLETVCHDPKLPYHDFILEDAASPKCIMKEKKKPGETFFMCSCSSDECNDNIIFSEEYNTSNPD VL: EIVLTQSPATLSLSPGERATLSCRASQSVSSYLAWYQQKPGQAPRLLIYDASNRATGIPARFSGSGSGTDFTLTISSLEPEDFAVYYCQQSSNWPRTFGQGTKVEIK | 2.7 |
| Anti-PD-1 (VL5-VH6).IgG4-Linker 2 -TGFbRII (other) heavy (part 1 of 2): QVQLVESGGGVVQPGRSLRLDCKASGITFSNSGMHWVRQAPGKGLEWVAVIWYDGSKRYYADSVKGRFTISRDNSKNTLFLQMNSLRAEDTAVYYCATNDDYWGQGTLVTVSS heavy (part 2 of 2): GGGGSGGGSIPPHVQKSVNNDMIVTDNNGAVKFPQLCKFCDVRFSTCDNQKSCMSNCSITSICEKPQEVCVAVWRKNDENITLETVCHDPKLPYHDFILEDAASPKCIMKEKKKPGETFFMCSCSSDECNDNIIFSEEYNTSNPD VL: EIVLTQSPATLSLSPGERATLSCRASQSVSSYLAWYQQKPGQAPRLLIYDASNRATGIPARFSGSGSGTDFTLTISSLEPEDFAVYYCQQSSNWPRTFGQGTKVEIK | 1.2 |

These binders were tested against T2, PD-1 Fc fusion protein (UniProt Q15116 25-167, limits assumed) (assay: SPR (Biacore), PD-1-Fc antigen on CM5, 1:1 Langmuir with mass transfer).
T2 construct: also called PD-1-Fc antigen; PD-1 fused to human Fc region; not shown: human Fc region
T2 sequence (Q15116 25-167 limits assumed): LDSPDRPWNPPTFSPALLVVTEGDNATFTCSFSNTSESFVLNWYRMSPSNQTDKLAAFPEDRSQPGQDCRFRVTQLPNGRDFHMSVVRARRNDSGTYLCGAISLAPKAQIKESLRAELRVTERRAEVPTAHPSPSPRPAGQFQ
Method: PD-1-Fc antigen and reference antigen was immobilized on Biacore CM5 surface. […] Kinetics data was evaluated for 1:1 model: Langmuir with mass transfer.

| Binder | Kd [pM] |
| --- | --- |
| Anti-PD-1 (nVL1-nVH3).IgG4 (antibody, V domains shown, IgG4) VH: QVQLVESGGGVVQPGRSLRLDCKASGITFSNSGMHWVRQAPGKGLEWVAVIWYDGSKRYYADSVKGRFTISRDNSKNTLFLQMNSLRAEDTAVYYCATNNDYWGQGTLVTVSS VL: EIVMTQSPATLSLSPGERATLSCRASQSVSSYLAWYQQKPGQAPRLLIYDASNRATGIPARFSGSGSGTDFTLTISSLEPEDFAVYYCQQYNNWPRTFGQGTKVEIK | 14.8 |
| Anti-PD-1 (nVL1-nVH3).IgG4(S108P) (antibody, V domains shown, IgG4 with S108P) VH: QVQLVESGGGVVQPGRSLRLDCKASGITFSNSGMHWVRQAPGKGLEWVAVIWYDGSKRYYADSVKGRFTISRDNSKNTLFLQMNSLRAEDTAVYYCATNNDYWGQGTLVTVSS VL: EIVMTQSPATLSLSPGERATLSCRASQSVSSYLAWYQQKPGQAPRLLIYDASNRATGIPARFSGSGSGTDFTLTISSLEPEDFAVYYCQQYNNWPRTFGQGTKVEIK | 14.1 |
